Results reported in IntAct's records for PubMed 32911434.

B1: Nuclear factor erythroid 2-related factor 2 (Homo sapiens), Q16236 (parent)
chain: MMDLELPPPGLPSQQDMDLIDILWRQDIDLGVSREVFDFSQRRKEYELEKQKKLEKERQEQLQKEQEKAFFAQLQLDEETGEFLPIQPAQHIQSETSGSANYSQVAHIPKSDALYFDDCMQLLAQTFPFVDDNEVSSATFQSLVPDIPGHIESPVFIATNQAQSPETSVAQVAPVDLDGMQQDIEQVWEELLSIPELQCLNIENDKLVETTMVPSPEAKLTEVDNYHFYSSIPSMEKEVGNCSPHFLNAFEDSFSSILSTEDPNQLTVNSLNSDATVNTDFGDEFYSAFIAEPSISNSMPSPATLSHSLSELLNGPIDVSDLSLCKAFNQNHPESTAEFNDSDSGISLNTSPSVASPEHSVESSSYGDTLLGLSDSEVEELDSAPGSVKQNGPKTPVHSSGDMVQPLSPSQGQSTHVHDAQCENTPEKELPVSPGHRKTPFTKDKHSSRLEAHLTRDELRAKALHIPFPVEKIINLPVVDFNEMMSKEQFNEAQLALIRDIRRRGKNKVAAQNCRKRKLENIVELEQDLDHLKDEKEKLLKEKGENDKSLHLLKKQLSTLYLEVFSMLRDEDGKPYSPSEYSLQQTRDGNVFLVPKSKKPDVKKN
partner: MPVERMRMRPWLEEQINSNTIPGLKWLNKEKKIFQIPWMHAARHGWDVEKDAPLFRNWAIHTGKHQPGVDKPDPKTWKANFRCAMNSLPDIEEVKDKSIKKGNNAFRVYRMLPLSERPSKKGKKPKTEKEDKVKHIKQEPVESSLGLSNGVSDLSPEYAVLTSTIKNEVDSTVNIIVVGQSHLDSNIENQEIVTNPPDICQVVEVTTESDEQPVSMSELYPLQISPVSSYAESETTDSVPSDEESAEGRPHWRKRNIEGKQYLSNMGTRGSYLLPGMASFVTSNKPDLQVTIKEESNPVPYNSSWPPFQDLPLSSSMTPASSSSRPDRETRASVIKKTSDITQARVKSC
B2: Nuclear factor erythroid 2-related factor 2 (Homo sapiens), Q16236 (parent)
chain: B1 chain
B3: Nuclear factor erythroid 2-related factor 2 (Homo sapiens), Q16236 (parent)
chain: B1 chain
partner: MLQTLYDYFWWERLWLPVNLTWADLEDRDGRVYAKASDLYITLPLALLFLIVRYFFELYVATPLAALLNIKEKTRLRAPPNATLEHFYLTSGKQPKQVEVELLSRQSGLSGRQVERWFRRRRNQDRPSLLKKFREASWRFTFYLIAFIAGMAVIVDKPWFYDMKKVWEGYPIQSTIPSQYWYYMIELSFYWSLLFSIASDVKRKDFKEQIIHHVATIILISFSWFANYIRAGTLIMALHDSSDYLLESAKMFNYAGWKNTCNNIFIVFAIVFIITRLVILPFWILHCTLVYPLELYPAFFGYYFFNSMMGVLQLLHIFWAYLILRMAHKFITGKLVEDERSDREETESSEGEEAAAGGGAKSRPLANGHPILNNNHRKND

Variants of: B1
Conditions: with irf2_human IRF2, P14316

| effect of a mutation on the interaction | Variant |
| --- | --- |
| decreasing interaction strength | Y576E |
| decreasing interaction strength | Y576F |
| decreasing interaction strength | S408A |
| decreasing interaction strength | T559D |

Variants of: B2
Conditions: with tf65_human RELA

| effect of a mutation on the interaction | Variant |
| --- | --- |
| increasing interaction strength | S40D |

Variants of: B2
Conditions: with apex1_human APEX1, P27695
Sequence of apex1_human APEX1, P27695 (P27695 whole entry): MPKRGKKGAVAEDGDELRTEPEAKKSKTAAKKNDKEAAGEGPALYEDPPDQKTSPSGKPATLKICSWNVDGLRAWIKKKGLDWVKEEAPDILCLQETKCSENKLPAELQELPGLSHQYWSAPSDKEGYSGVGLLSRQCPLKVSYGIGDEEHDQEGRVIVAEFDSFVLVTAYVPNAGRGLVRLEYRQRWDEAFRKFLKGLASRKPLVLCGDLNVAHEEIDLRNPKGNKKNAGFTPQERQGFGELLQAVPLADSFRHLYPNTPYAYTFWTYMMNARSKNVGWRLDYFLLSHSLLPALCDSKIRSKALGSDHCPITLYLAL

| effect of a mutation on the interaction | Variant |
| --- | --- |
| increasing interaction strength | S40D |

Variants of: B2
Conditions: with brpf3_human BRPF3, Q9ULD4
Sequence of brpf3_human BRPF3, Q9ULD4 (Q9ULD4 whole entry): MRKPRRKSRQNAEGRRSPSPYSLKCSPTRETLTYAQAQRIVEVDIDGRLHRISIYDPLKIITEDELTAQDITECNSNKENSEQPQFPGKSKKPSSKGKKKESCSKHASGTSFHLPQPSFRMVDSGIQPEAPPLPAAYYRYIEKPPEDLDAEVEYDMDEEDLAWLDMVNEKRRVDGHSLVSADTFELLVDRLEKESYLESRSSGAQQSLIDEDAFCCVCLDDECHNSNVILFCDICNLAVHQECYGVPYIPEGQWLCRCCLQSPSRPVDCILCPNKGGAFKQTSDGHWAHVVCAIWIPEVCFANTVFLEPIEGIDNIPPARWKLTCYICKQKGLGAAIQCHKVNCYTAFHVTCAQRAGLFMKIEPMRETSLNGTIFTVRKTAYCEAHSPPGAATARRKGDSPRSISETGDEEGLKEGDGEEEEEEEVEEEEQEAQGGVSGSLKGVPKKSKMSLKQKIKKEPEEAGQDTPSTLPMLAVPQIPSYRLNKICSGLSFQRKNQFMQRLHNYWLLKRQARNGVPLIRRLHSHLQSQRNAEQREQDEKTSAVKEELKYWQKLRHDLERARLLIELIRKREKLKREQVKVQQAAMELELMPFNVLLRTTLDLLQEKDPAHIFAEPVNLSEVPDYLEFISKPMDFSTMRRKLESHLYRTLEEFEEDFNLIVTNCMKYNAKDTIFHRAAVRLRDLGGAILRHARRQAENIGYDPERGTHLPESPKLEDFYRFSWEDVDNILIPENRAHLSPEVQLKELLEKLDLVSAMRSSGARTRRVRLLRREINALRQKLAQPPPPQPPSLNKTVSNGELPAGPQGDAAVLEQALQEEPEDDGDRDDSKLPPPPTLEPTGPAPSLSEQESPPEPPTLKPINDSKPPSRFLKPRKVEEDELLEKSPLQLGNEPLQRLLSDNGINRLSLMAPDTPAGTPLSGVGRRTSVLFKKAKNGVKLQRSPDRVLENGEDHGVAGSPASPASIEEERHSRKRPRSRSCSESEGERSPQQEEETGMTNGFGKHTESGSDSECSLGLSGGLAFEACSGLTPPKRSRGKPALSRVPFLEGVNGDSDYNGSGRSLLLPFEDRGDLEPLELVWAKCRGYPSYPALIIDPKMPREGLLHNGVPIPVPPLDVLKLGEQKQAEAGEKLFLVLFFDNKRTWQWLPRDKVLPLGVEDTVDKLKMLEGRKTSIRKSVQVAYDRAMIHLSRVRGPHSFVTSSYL

| effect of a mutation on the interaction | Variant |
| --- | --- |
| decreasing interaction strength | T559D |
| decreasing interaction strength | Y576F |
| decreasing interaction strength | Y576E |
| decreasing interaction strength | S408A |

Variants of: B2
Conditions: with ima1_human KPNA2, P52292

| effect of a mutation on the interaction | Variant |
| --- | --- |
| decreasing interaction strength | T559D |
| decreasing interaction strength | Y576E |

Variants of: B3
Conditions: with cers2_human CERS2, Q96G23

| effect of a mutation on the interaction | Variant |
| --- | --- |
| increasing interaction strength | Y576E |
